In publication PMC10786891, “Massively parallel profiling of RNA-targeting CRISPR-Cas13d”:
Substitutions are numbered along the chain they refer to. Names may count otherwise.

T1: EsCas13d, nuclease-dead (Eubacterium siraeum, UniProt B0MS50, R295A;H300A;R849A;H854A)
T1 sequence: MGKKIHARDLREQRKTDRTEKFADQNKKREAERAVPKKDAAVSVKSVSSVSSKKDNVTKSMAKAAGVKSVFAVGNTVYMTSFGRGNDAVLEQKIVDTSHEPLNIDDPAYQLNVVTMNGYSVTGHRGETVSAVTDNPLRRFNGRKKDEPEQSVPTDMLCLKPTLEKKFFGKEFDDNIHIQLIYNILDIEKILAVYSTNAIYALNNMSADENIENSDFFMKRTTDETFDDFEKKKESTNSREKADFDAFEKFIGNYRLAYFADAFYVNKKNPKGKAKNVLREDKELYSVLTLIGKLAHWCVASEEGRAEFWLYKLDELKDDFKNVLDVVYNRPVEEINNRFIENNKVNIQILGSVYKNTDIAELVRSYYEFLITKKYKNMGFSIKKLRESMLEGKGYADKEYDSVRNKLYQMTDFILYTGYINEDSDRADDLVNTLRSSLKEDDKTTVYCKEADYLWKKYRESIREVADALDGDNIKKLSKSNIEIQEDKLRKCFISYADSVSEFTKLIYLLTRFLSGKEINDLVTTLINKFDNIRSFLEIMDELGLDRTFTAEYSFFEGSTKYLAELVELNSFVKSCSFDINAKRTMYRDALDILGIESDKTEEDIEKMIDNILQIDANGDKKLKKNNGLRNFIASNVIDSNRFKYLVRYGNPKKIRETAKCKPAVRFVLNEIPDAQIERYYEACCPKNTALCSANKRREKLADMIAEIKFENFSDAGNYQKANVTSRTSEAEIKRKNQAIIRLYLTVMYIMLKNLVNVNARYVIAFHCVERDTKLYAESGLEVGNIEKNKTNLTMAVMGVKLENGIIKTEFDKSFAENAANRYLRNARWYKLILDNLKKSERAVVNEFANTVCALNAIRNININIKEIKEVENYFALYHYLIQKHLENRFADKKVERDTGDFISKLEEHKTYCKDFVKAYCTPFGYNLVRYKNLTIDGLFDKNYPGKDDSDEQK

B1: target 2 MT 5'PFS GGG 3'PFS ACG (mixed)
RNA 1: CACCCGUGCAAAAUUGCAGGGGUCUAAAACCUUCUCCAAAUUGUUUCAUCCU
RNA 2: GGGAAUGGAUCCACAUCUACGAAUUCGGGAGGAUGAAACAAUUUGGAGAAGACGAGAUCGGAAGAGCACACGU
B2: target 2 MT 5'PFS CGU 3'PFS ACG (mixed)
RNA 1: B1 RNA 1
RNA 2: B1 RNA 2 with G27C, G29U
B3: target 2 MT 5'PFS ACC 3'PFS UGU (mixed)
RNA 1: B1 RNA 1
RNA 2: B1 RNA 2 with G27A, G28C, G29C, A52U, C53G, G54U
B4: target 2 MT 5'PFS GAG 3'PFS ACU (mixed)
RNA 1: B1 RNA 1
RNA 2: B1 RNA 2 with G28A, G54U
B5: target 2 MT 5'PFS CGA 3'PFS AUC (mixed)
RNA 1: B1 RNA 1
RNA 2: B1 RNA 2 with G27C, G29A, C53U, G54C
B6: target 2 MT 5'PFS GAG 3'PFS ACA (mixed)
RNA 1: B1 RNA 1
RNA 2: B1 RNA 2 with G28A, G54A
B7: target 2 MT 5'PFS UUA 3'PFS CAC (mixed)
RNA 1: B1 RNA 1
RNA 2: B1 RNA 2 with G27U, G28U, G29A, A52C, C53A, G54C
B8: target 2 MT 5'PFS GUA 3'PFS UCC (mixed)
RNA 1: B1 RNA 1
RNA 2: B1 RNA 2 with G28U, G29A, A52U, G54C
B9: target 2 MT 5'PFS ACC 3'PFS UGC (mixed)
RNA 1: B1 RNA 1
RNA 2: B1 RNA 2 with G27A, G28C, G29C, A52U, C53G, G54C
B10: target 2 MT 5'PFS AUU 3'PFS AAU (mixed)
RNA 1: B1 RNA 1
RNA 2: B1 RNA 2 with G27A, G28U, G29U, C53A, G54U
B11: target 2 MT 5'PFS AUU 3'PFS AAA (mixed)
RNA 1: B1 RNA 1
RNA 2: B1 RNA 2 with G27A, G28U, G29U, C53A, G54A
B12: target 2 MT 5'PFS CGA 3'PFS AUU (mixed)
RNA 1: B1 RNA 1
RNA 2: B1 RNA 2 with G27C, G29A, C53U, G54U
B13: target 2 MT 5'PFS CGC 3'PFS AUG (mixed)
RNA 1: B1 RNA 1
RNA 2: B1 RNA 2 with G27C, G29C, C53U
B14: target 2 MT 5'PFS CGU 3'PFS ACU (mixed)
RNA 1: B1 RNA 1
RNA 2: B1 RNA 2 with G27C, G29U, G54U
B15: target 2 MT 5'PFS ACC 3'PFS UGA (mixed)
RNA 1: B1 RNA 1
RNA 2: B1 RNA 2 with G27A, G28C, G29C, A52U, C53G, G54A
B16: target 2 MT 5'PFS GAG 3'PFS ACG (mixed)
RNA 1: B1 RNA 1
RNA 2: B1 RNA 2 with G28A
B17: target 2 MT 5'PFS CGC 3'PFS AUA (mixed)
RNA 1: B1 RNA 1
RNA 2: B1 RNA 2 with G27C, G29C, C53U, G54A
B18: target 2 MT 5'PFS CGC 3'PFS AUU (mixed)
RNA 1: B1 RNA 1
RNA 2: B1 RNA 2 with G27C, G29C, C53U, G54U
B19: target 2 MT 5'PFS ACA 3'PFS ACA (mixed)
RNA 1: B1 RNA 1
RNA 2: B1 RNA 2 with G27A, G28C, G29A, G54A
B20: target 2 MT 5'PFS CGC 3'PFS AUC (mixed)
RNA 1: B1 RNA 1
RNA 2: B1 RNA 2 with G27C, G29C, C53U, G54C
B21: target 2 MT 5'PFS UUA 3'PFS CAA (mixed)
RNA 1: B1 RNA 1
RNA 2: B1 RNA 2 with G27U, G28U, G29A, A52C, C53A, G54A
B22: target 2 MT 5'PFS ACC 3'PFS UAA (mixed)
RNA 1: B1 RNA 1
RNA 2: B1 RNA 2 with G27A, G28C, G29C, A52U, C53A, G54A
B23: target 2 MT 5'PFS UUA 3'PFS CAG (mixed)
RNA 1: B1 RNA 1
RNA 2: B1 RNA 2 with G27U, G28U, G29A, A52C, C53A
B24: target 2 MT 5'PFS GAU 3'PFS UCU (mixed)
RNA 1: B1 RNA 1
RNA 2: B1 RNA 2 with G28A, G29U, A52U, G54U
B25: target 2 MT 5'PFS GAG 3'PFS ACC (mixed)
RNA 1: B1 RNA 1
RNA 2: B1 RNA 2 with G28A, G54C
B26: target 2 MT 5'PFS UUG 3'PFS CCG (mixed)
RNA 1: B1 RNA 1
RNA 2: B1 RNA 2 with G27U, G28U, A52C
B27: target 2 MT 5'PFS GGG 3'PFS ACU (mixed)
RNA 1: B1 RNA 1
RNA 2: B1 RNA 2 with G54U
B28: target 2 MT 5'PFS GAC 3'PFS CGC (mixed)
RNA 1: B1 RNA 1
RNA 2: B1 RNA 2 with G28A, G29C, A52C, C53G, G54C
B29: target 2 MT 5'PFS ACA 3'PFS ACU (mixed)
RNA 1: B1 RNA 1
RNA 2: B1 RNA 2 with G27A, G28C, G29A, G54U
B30: target 2 MT 5'PFS UUG 3'PFS CCU (mixed)
RNA 1: B1 RNA 1
RNA 2: B1 RNA 2 with G27U, G28U, A52C, G54U
B31: target 2 MT 5'PFS GUA 3'PFS UCA (mixed)
RNA 1: B1 RNA 1
RNA 2: B1 RNA 2 with G28U, G29A, A52U, G54A
B32: target 2 MT 5'PFS AUU 3'PFS UAU (mixed)
RNA 1: B1 RNA 1
RNA 2: B1 RNA 2 with G27A, G28U, G29U, A52U, C53A, G54U
B33: target 1 C6U,A16G (mixed)
RNA 1: CACCCGUGCAAAAAUGCAGGGGUCUAAAACUGAGCGGAUAACCUCUCUAUGG
RNA 2: GGGAAUGGAUCCACAUCUACGAAUUCGUACCAUAGGGAGGUUAUCUGCUCACCGAGAUCGGAAGAGCACACGU
B34: target 1 A1C,C2G (mixed)
RNA 1: B33 RNA 1
RNA 2: B33 RNA 2 with G36A, U46C, C50G, A51C
B35: target 1 insA 3' of 7,insG 3' of 3 (mixed)
RNA 1: B33 RNA 1
RNA 2: GGGAAUGGAUCCACAUCUACGAAUUCGUACCAUAGAGAGGUUAUCACGCUGCACCGAGAUCGGAAGAGCACACGU
B36: target 1 A1G,C2G (mixed)
RNA 1: B33 RNA 1
RNA 2: B33 RNA 2 with G36A, U46C, C50G, A51G
B37: target 1 insA 3' of 8,insA 3' of 8 (mixed)
RNA 1: B33 RNA 1
RNA 2: B35 RNA 2 with C45A, G48C, C49G, U50C, G51U

Each binder was assayed against T1, EsCas13d, nuclease-dead (assay: crRNA (strand 1, pre-loaded); Mg2+; 40 mM Tris-HCl pH 7.5, 150 mM NaCl, 6 mM MgCl2, 1 mM DTT, 0.1% Tween-20, 0.2 mg/ml BSA; 25 C; 10 min per concentration, then washed). Conditions: tags: His6-TwinStrep-SUMO cleaved; N-terminal SNAP kept (SNAP-Surface 488); label: 3' end held by stalled T7 RNA polymerase.

| Binder | Kd |
| --- | --- |
| B1 | 10.4 ± 0.6 nM |
| B2 | 21 ± 5 nM |
| B3 | 18 ± 6 nM |
| B4 | 8.1 ± 0.7 nM |
| B5 | 7.1 ± 1.4 nM |
| B6 | 9.6 ± 1.6 nM |
| B7 | 30 ± 7 nM |
| B8 | 29 ± 5 nM |
| B9 | 7.7 ± 2.2 nM |
| B10 | 7.1 ± 1.4 nM |
| B11 | 4.7 ± 0.5 nM |
| B12 | 10.6 ± 3.3 nM |
| B13 | 5 ± 0.6 nM |
| B14 | 23 ± 5 nM |
| B15 | 8 ± 1.4 nM |
| B16 | 6.7 ± 0.32 nM |
| B17 | 4 ± 0.5 nM |
| B18 | 5 ± 0.8 nM |
| B19 | 7.2 ± 2.3 nM |

| Binder | Kd |
| --- | --- |
| B20 | 4.6 ± 0.6 nM |
| B21 | 14.4 ± 2.6 nM |
| B22 | ~12 nM |
| B23 | 18.5 ± 1.9 nM |
| B24 | 56 ± 15 nM |
| B25 | 14 ± 4 nM |
| B26 | 16.8 ± 1.4 nM |
| B27 | 9.3 ± 0.4 nM |
| B28 | 14.8 ± 3.2 nM |
| B29 | 6.3 ± 1.3 nM |
| B30 | ~80 nM |
| B31 | 10.3 ± 1.2 nM |
| B32 | 5.6 ± 0.4 nM |
| B33 | 31.9 ± 2.2 nM |
| B34 | 35 ± 4 nM |
| B35 | 4.65 ± 0.13 nM |
| B36 | 5.54 ± 0.24 nM |
| B37 | 32.2 ± 3.2 nM |
